Experimental data reported in patent publication US20120316071A1 (published 2012).

Columns and labels:
[1] = molecular target: T1, rHuman EGF R/Fc Chimera, CF (R&D Systems Cat#344-ER) (human, UniProt P00533 25-645); assay: ECL Multispot (MSD), antigen spotted; Fab 500 (µM); blank 439
T1 construct: Bought recombinant protein; Fc part of the bought chimera not given

[2] = molecular target: T2, rHuman Notch-1/Fc Chimera, CF (R&D Systems Cat#3647-TK) (human, UniProt P46531 19-526); assay: as above
T2 construct: Bought recombinant protein; Fc part of the bought chimera not given

[3] = molecular target: T3, rHuman IGF-1 sR, CF (R&D Systems Cat#391-GR) (human, UniProt P08069 31-932); assay: as above
T3 construct: Bought recombinant soluble receptor; also called insulin-like growth factor-1 soluble receptor

[4] = molecular target: T4, rHuman CD44/Fc Chimera, CF (R&D Systems Cat#3660-CD) (human, UniProt P16070 21-220); assay: MSD Multispot ECL, antigen spotted on plate, Fab at 30 nM; blank spot 213
T4 construct: Bought Fc chimera; Fc part of the bought chimera not given

[5] = molecular target: T5, rHuman P-Cadherin/Fc Chimera, CF (R&D Systems Cat#861-PC) (human, UniProt P22223 108-654); assay: as above
T5 construct: Bought Fc chimera; Fc part of the bought chimera not given

[6] = molecular target: T6, Recombinant Human DLL4 (R&D Systems Cat#1506-D4/CF) (human, UniProt Q9NR61 27-524); assay: as above
T6 construct: Bought recombinant protein; also called rHuman DLL4; delta-like protein 4

[7] = molecular target: T7, rHuman Notch-1/Fc Chimera, CF (R&D Systems Cat#3647-TK) (human, UniProt P46531 19-526); assay: as above
T7 construct: Bought Fc chimera; Fc part of the bought chimera not given

[8] = molecular target: T8, rHuman Erythropoietin R/Fc Chimera, CF (R&D Systems Cat#963-ER) (human, UniProt P19235 25-250); assay: as above
T8 construct: Bought Fc chimera; also called EPO R/Fc; Epo R; Fc part of the bought chimera not given
T8 sequence (looked up): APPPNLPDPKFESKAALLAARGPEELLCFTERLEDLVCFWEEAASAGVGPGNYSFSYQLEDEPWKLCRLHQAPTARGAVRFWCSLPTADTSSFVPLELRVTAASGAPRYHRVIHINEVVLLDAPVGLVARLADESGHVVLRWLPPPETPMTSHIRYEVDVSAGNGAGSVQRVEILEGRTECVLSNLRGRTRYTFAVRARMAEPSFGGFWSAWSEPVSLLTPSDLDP

[9] = molecular target: T9, Recombinant Human DLL4 (R&D Systems Cat#1506-D4/CF) (human, UniProt Q9NR61 27-524); assay: Multispot ECL (MSD), antigen spotted on plate, Fab 7.8 nM; blank spot 316
T9 construct: Bought recombinant protein; also called rHuman DLL4; delta-like protein 4

[10] = molecular target: T10, rHuman IGF-1 sR, CF (R&D Systems Cat#391-GR) (human, UniProt P08069 31-932); assay: as above
T10 construct: Bought recombinant soluble receptor; also called insulin-like growth factor-1 soluble receptor

[11] = molecular target: T11, rHuman Notch-1/Fc Chimera, CF (R&D Systems Cat#3647-TK) (human, UniProt P46531 19-526); assay: as above
T11 construct: Bought recombinant protein; Fc part of the bought chimera not given

[12] = molecular target: T12, rHuman Erythropoietin R/Fc Chimera, CF (R&D Systems Cat#963-ER) (human, UniProt P19235 25-250); assay: as above
T12 construct: Bought recombinant protein; also called EPO R/Fc; Epo R; Fc part of the bought chimera not given
T12 sequence (looked up): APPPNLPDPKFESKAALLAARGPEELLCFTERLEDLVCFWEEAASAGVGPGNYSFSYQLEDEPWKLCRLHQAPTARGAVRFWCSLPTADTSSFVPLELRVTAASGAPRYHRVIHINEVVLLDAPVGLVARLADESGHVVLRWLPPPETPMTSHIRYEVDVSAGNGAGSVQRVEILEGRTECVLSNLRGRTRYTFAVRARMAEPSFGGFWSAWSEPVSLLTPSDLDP

[13] = molecular target: T13, rHuman Erythropoietin R/Fc Chimera, CF (R&D Systems Cat#963-ER) (human, UniProt P19235 25-250); assay: MSD Multispot ECL, antigen spotted on plate, Fab 8.1 nM; blank spot 435
T13 construct: Bought reagent; also called EPO R/Fc; EPO R; Fc part of the bought chimera not given
T13 sequence (looked up): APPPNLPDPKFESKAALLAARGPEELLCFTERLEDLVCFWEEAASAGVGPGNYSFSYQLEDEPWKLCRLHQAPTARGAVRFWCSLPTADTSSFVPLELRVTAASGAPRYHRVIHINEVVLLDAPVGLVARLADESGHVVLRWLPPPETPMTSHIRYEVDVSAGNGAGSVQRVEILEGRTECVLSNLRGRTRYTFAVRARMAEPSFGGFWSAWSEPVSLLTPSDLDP

[14] = molecular target: T14, rHuman HGF R/c-MET/Fc Chimera, CF (R&D Systems Cat#358-MT/CF) (human, UniProt P08581 25-932); assay: as above
T14 construct: Bought reagent; also called HGF R/Fc; hepatocyte growth factor receptor; Fc part of the bought chimera not given
T14 sequence (P08581 25-932, change not shown): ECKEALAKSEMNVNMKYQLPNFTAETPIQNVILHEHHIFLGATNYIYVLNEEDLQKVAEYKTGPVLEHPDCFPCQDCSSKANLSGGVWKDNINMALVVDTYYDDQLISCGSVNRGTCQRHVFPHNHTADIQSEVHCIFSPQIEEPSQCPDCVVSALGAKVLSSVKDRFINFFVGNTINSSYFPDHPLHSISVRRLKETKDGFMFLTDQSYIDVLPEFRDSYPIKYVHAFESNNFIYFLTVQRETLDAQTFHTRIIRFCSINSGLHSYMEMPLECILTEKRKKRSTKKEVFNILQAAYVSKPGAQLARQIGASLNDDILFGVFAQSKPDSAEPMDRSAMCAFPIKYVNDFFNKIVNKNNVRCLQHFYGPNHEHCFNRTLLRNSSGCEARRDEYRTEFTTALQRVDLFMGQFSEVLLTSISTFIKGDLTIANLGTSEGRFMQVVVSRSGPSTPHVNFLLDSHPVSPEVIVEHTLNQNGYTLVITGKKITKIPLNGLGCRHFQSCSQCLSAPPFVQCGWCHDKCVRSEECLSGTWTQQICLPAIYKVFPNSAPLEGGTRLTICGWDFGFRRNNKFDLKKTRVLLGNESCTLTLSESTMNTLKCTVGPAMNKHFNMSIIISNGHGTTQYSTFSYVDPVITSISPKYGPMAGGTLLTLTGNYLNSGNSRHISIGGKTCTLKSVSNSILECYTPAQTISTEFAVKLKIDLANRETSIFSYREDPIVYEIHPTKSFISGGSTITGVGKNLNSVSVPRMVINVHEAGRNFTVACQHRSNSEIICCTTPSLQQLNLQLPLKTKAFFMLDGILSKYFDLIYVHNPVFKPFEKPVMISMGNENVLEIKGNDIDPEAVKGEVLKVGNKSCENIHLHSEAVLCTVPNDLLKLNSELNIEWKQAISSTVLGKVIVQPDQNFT

[15] = molecular target: T15, rHuman ErbB2/Fc Chimera, CF (R&D Systems Cat#1129-ER) (human, UniProt P04626 23-652); assay: as above
T15 construct: Bought reagent; also called human epidermal growth factor 2 receptor; Fc part of the bought chimera not given

[16] = molecular target: T16, rHuman Notch-1/Fc Chimera, CF (R&D Systems Cat#3647-TK) (human, UniProt P46531 19-526); assay: as above
T16 construct: Bought reagent; Fc part of the bought chimera not given

[17] = molecular target: T17, rHuman IGF-1 sR, (IGF-1 sR), CF (R&D Systems Cat#391-GR) (human, UniProt P08069 31-932); assay: as above
T17 construct: Bought soluble receptor; also called insulin-like growth factor-1 soluble receptor

[18] = molecular target: T18, rHuman EGF R/Fc Chimera, CF (R&D Systems Cat#344-ER) (human, UniProt P00533 25-645); assay: as above
T18 construct: Bought reagent; also called epidermal growth factor receptor; Fc part of the bought chimera not given

[19] = molecular target: T19, Recombinant Human DLL4 (R&D Systems Cat#1506-D4/CF) (human, UniProt Q9NR61 27-529); assay: as above
T19 construct: Bought recombinant protein; also called rHuman DLL4; delta-like protein 4

B1: Fab VH1-46_IGHD6-6*01_IGHJ1*01 S102A/S103P/S104F (APF) & L6_IGKJ1*01 (Fab, V domains shown)
VH: QVQLVQSGAEVKKPGASVKVSCKASGYTFTSYYMHWVRQAPGQGLEWMGIINPSGGSTSYAQKFQGRVTMTRDTSTSTVYMELSSLRSEDTAVYYCAREEYAPFSAEYFQHWGQGTLVTVSS
VL: not shown
notes: Tested as a Fab made in E. coli: VH cloned in Plasmid A (CH1 constant region, His6 and Flag tags), VL in Plasmid C (kappa constant region); also called H:APF & L:wt; APF triple mutant
ECL signal [1]: 1480
ECL signal [2]: 785
ECL signal [3]: 613

B2: Fab VH6-1_IGHD3-3*01_IGHJ4*01 & V4-3_IGLJ4*01 (Fab, V domains shown)
VH: QVQLQQSGPGLVKPSQTLSLTCAISGDSVSSNSAAWNWIRQSPSRGLEWLGRTYYRSKWYNDYAVSVKSRITINPDTSKNQFSLQLNSVTPEDTAVYYCAREYYDFWSGYYTDYFDYWGQGTLVTVSS
VL: QPVLTQPTSLSASPGASARLTCTLRSGINLGSYRIFWYQQKPESPPRYLLSYYSDSSKHQGSGVPSRFSGSKDASSNAGILVISGLQSEDEADYYCMIWHSSASFVFGGGTQLIIL
notes: Tested as a purified germline Fab made in E. coli; The VH was cloned into plasmid A (CH1 constant region, His6 and Flag tags) and the lambda VL into plasmid E (lambda CL)
ECL signal [4]: 484
ECL signal [5]: 440
ECL signal [6]: 736
ECL signal [7]: 425
ECL signal [8]: 325

B3: Fab VH1-46_IGHD6-13*01_IGHJ4*01 & B3_IGKJ1*01 (Fab, V domains shown)
VH: QVQLVQSGAEVKKPGASVKVSCKASGYTFTSYYMHWVRQAPGQGLEWMGIINPSGGSTSYAQKFQGRVTMTRDTSTSTVYMELSSLRSEDTAVYYCAREGYSSSWYDYFDYWGQGTLVTVSS
VL: not shown
notes: Germline Fab made in E. coli; VH was cloned into Plasmid A (CH1, His6 and Flag tags) and the kappa VL into Plasmid C (kappa CL)
ECL signal [9]: 407
ECL signal [10]: 353
ECL signal [11]: 486
ECL signal [12]: 6760

B4: Fab VH1-8_IGHD2-2*01_IGHJ6*01 & L12_IGKJ1*01 (Fab, V domains shown)
VH: QVQLVQSGAEVKKPGASVKVSCKASGYTFTSYDINWVRQATGQGLEWMGWMNPNSGNTGYAQKFQGRVTMTRNTSISTAYMELSSLRSEDTAVYYCARGGYCSSTSCYADYYYYYGMDVWGQGTTVTVSS
VL: not shown
ECL signal [13]: 660
ECL signal [14]: 551
ECL signal [15]: 557
ECL signal [16]: 612
ECL signal [17]: 518
ECL signal [18]: 560
ECL signal [19]: 1550
